Data on 1 substance can be found in patent US20130303393A1.

For assay [1], the target named is NlpA-ZZ fusion protein. The assay can be described thus: flow cytometry of NlpA-ZZ spheroplasts labeled with 5 nM FITC-conjugated Human IgG; residual fluorescence at Time 1440 min.
In assay [2] the target is NlpA-ZZ fusion protein. The assay can be described thus: flow cytometry of NlpA-ZZ spheroplasts labeled with 5 nM FITC-conjugated Human IgG; residual fluorescence at Time 10 min.
Assay [3] addresses NlpA-ZZ fusion protein. The assay can be described thus: flow cytometry of spheroplasts expressing NlpA-ZZ, labeled with 50 nM FITC-conjugated Human IgG.
Assay [4] deals with NlpA-ZZ fusion protein. Kind of assay: flow cytometry of NlpA-ZZ spheroplasts labeled with 5 nM FITC-conjugated Human IgG; residual fluorescence at Time 0 min.
Assay [5] deals with NlpA-ZZ fusion protein. The assay can be described thus: flow cytometry of NlpA-ZZ spheroplasts labeled with 5 nM FITC-conjugated Human IgG; residual fluorescence at Time 30 min.
The target in assay [6] is NlpA-ZZ fusion protein. The assay can be described thus: flow cytometry of NlpA-ZZ spheroplasts labeled with 5 nM FITC-conjugated Human IgG; residual fluorescence at Time 60 min.
The target of assay [7] is NlpA-80R(scFv).
Assay [8] has as its target NlpA-ZZ fusion protein. The assay can be described thus: flow cytometry of NlpA-ZZ spheroplasts labeled with 5 nM FITC-conjugated Human IgG; residual fluorescence at Time 4320 min.
Assay [9] has as its target NlpA-ZZ fusion protein. The assay can be described thus: flow cytometry of NlpA-ZZ spheroplasts labeled with 5 nM FITC-conjugated Human IgG; residual fluorescence at Time 20 min.
For assay [10], the target named is NlpA-ZZ fusion protein. Kind of assay: flow cytometry of NlpA-ZZ spheroplasts labeled with 5 nM FITC-conjugated Human IgG; residual fluorescence at Time 120 min.
The target of assay [11] is NlpA-ZZ fusion protein. The assay can be described thus: flow cytometry of NlpA-ZZ spheroplasts labeled with 5 nM FITC-conjugated Human IgG; residual fluorescence at Time 180 min.
The target in assay [12] is NlpA-ZZ fusion protein. Kind of assay: flow cytometry of NlpA-ZZ spheroplasts labeled with 5 nM FITC-conjugated Human IgG; residual fluorescence at Time 240 min.

In the case of “commercial Human IgG antibodies (FITC-conjugated) (antibody)”, the M (FL1-Height) in [1] was found to be 146; in assay [2] it was 150; in [3], 2760; in [4], 153; in assay [5], 147; in [6], 136. For the same substance, the M (FL1-Height) in assay [7] came to 3; in assay [8], 154; in assay [9], 143; in assay [10], 133; in [11], 148; in [12], 142.
